Consider two substances from US20220403428A1.

The target of this experiment is PcPsiH, Psilocybe cubensis tryptamine 4-monooxygenase (cytochrome P450 enzyme) (Psilocybe cubensis) (UniProt P0DPA7). As to the kind of experiment: cell-based or functional assay.

Turning to “PcCpr, putative Psilocybe cubensis cytochrome P450 reductase (enzyme)”, the psilocin titer was determined as 135 mg/L and the psilocybin titer stood at 117 mg/L. In turn, “native S. cerevisiae cytochrome P450 reductase (Ncp1) (from UniProt P16603 2-691) (enzyme)” registered an extracellular accumulation of tryptamine of 90 mg/L.
